Data published in the supplement of paper PMC9112550, “Optimization of the antimicrobial peptide Bac7 by deep mutational scanning” (BMC Biology, 2022).

tested on: Escherichia coli TOP10; assay: shrunken log2 fold change of peptide-encoding DNA abundance (4.5 h post-induction vs induction); higher = less antimicrobial activity (less host growth inhibition); conditions: time post-induction: 4.5 h; library: site-saturation at positions 5, 18, 19, 20
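Further: peptides expressed intracellularly from a pBAD plasmid library in pooled LB shake-flask culture, induced with 0.3% L-arabinose, DNA abundance read by NGS, three biological replicates, DESeq2 with apeglm shrinkage.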

Row | Sequence | shrunken log2 fold change
1 | RRIRWRPPRLPRPRPRPSTIPRP | -0.374
2 | RRIRPRPPRLPRPRPRPALPPRP | 1.63
3 | RRIRFRPPRLPRPRPRPPLEPRP | 0.288
4 | RRIRVRPPRLPRPRPRPPRIPRP | 0.116
5 | RRIRKRPPRLPRPRPRPRHVPRP | 0.0906
6 | RRIRKRPPRLPRPRPRPILFPRP | -0.0861
7 | RRIRARPPRLPRPRPRPLSHPRP | 0.186
8 | RRIRYRPPRLPRPRPRPAGIPRP | -0.359
9 | RRIRYRPPRLPRPRPRPPTTPRP | -0.165
10 | RRIRVRPPRLPRPRPRPCYGPRP | -0.259
11 | RRIRLRPPRLPRPRPRPLCDPRP | -0.284
12 | RRIRKRPPRLPRPRPRPHWMPRP | 0.0937
13 | RRIRFRPPRLPRPRPRPTVKPRP | -0.163
14 | RRIRGRPPRLPRPRPRPNKKPRP | 0.0152
15 | RRIRMRPPRLPRPRPRPRLHPRP | 0.721
16 | RRIRPRPPRLPRPRPRPCAYPRP | -0.311
17 | RRIRERPPRLPRPRPRPHKLPRP | -0.635
18 | RRIRKRPPRLPRPRPRPNKEPRP | -0.0272
19 | RRIRPRPPRLPRPRPRPWHLPRP | -0.233
20 | RRIRERPPRLPRPRPRPLGVPRP | -0.171
21 | RRIRRRPPRLPRPRPRPVMEPRP | 0.305
22 | RRIRTRPPRLPRPRPRPVFWPRP | 0.386
23 | RRIRQRPPRLPRPRPRPDNAPRP | -0.246

Row | Sequence | shrunken log2 fold change
24 | RRIRVRPPRLPRPRPRPFEPPRP | 0.126
25 | RRIRERPPRLPRPRPRPNWKPRP | -0.0166
26 | RRIRARPPRLPRPRPRPHIFPRP | 0.141
27 | RRIRCRPPRLPRPRPRPNWDPRP | -0.185
28 | RRIRNRPPRLPRPRPRPWVFPRP | -0.221
29 | RRIRMRPPRLPRPRPRPNPAPRP | 0.201
30 | RRIRCRPPRLPRPRPRPRICPRP | 0.183
31 | RRIRDRPPRLPRPRPRPPPNPRP | 0.84
32 | RRIRDRPPRLPRPRPRPVVLPRP | 0.268
33 | RRIRYRPPRLPRPRPRPSFQPRP | -1.13
34 | RRIRYRPPRLPRPRPRPAMLPRP | -0.372
35 | RRIRTRPPRLPRPRPRPFANPRP | -0.116
36 | RRIRRRPPRLPRPRPRPQDDPRP | -0.0295
37 | RRIRVRPPRLPRPRPRPVTWPRP | -0.14
38 | RRIRPRPPRLPRPRPRPSYDPRP | -0.526
39 | RRIRYRPPRLPRPRPRPMMNPRP | -0.367
40 | RRIRCRPPRLPRPRPRPPGWPRP | 0.612
41 | RRIRLRPPRLPRPRPRPWPEPRP | 0.243
42 | RRIRFRPPRLPRPRPRPCMMPRP | -0.0025
43 | RRIRPRPPRLPRPRPRPSLMPRP | -0.155
44 | RRIRERPPRLPRPRPRPTNLPRP | -0.0315
45 | RRIRGRPPRLPRPRPRPKDRPRP | 0.89
46 | RRIRLRPPRLPRPRPRPFSDPRP | 0.0391

Row | Sequence | shrunken log2 fold change
47 | RRIRYRPPRLPRPRPRPNNNPRP | -0.989
48 | RRIRFRPPRLPRPRPRPRICPRP | 0.0102
49 | RRIRERPPRLPRPRPRPWVWPRP | 0.0922
50 | RRIRARPPRLPRPRPRPEINPRP | 0.96
51 | RRIRHRPPRLPRPRPRPTTNPRP | -0.348
52 | RRIRYRPPRLPRPRPRPKSSPRP | -0.147
53 | RRIRGRPPRLPRPRPRPWACPRP | 0.216
54 | RRIRQRPPRLPRPRPRPDKNPRP | -0.635
55 | RRIRMRPPRLPRPRPRPQGAPRP | 0.124
56 | RRIRQRPPRLPRPRPRPPQWPRP | 0.525
57 | RRIRGRPPRLPRPRPRPFFIPRP | 0.0612
58 | RRIRKRPPRLPRPRPRPHYVPRP | -0.0482
59 | RRIRCRPPRLPRPRPRPIVLPRP | -0.456
60 | RRIRNRPPRLPRPRPRPTLPPRP | 0.149
61 | RRIRFRPPRLPRPRPRPNQNPRP | -0.443
62 | RRIRCRPPRLPRPRPRPMLKPRP | -0.141
63 | RRIRMRPPRLPRPRPRPGKYPRP | 0.0424
64 | RRIRKRPPRLPRPRPRPKAWPRP | -0.0159
65 | RRIRERPPRLPRPRPRPREFPRP | -0.0736
66 | RRIRSRPPRLPRPRPRPAHWPRP | 0.416
67 | RRIRMRPPRLPRPRPRPKPKPRP | 0.476
68 | RRIRSRPPRLPRPRPRPTGGPRP | 0.259
69 | RRIRNRPPRLPRPRPRPMHKPRP | -0.131

Row | Sequence | shrunken log2 fold change
70 | RRIRARPPRLPRPRPRPVEQPRP | 0.446
71 | RRIRIRPPRLPRPRPRPHDMPRP | -0.226
72 | RRIRQRPPRLPRPRPRPIWYPRP | 0.0288
73 | RRIRLRPPRLPRPRPRPVVSPRP | -0.054
74 | RRIRARPPRLPRPRPRPMMCPRP | 0.544
75 | RRIRIRPPRLPRPRPRPKLYPRP | -0.33
76 | RRIRQRPPRLPRPRPRPDWRPRP | 0.0703
77 | RRIRNRPPRLPRPRPRPGRWPRP | 0.762
78 | RRIRVRPPRLPRPRPRPENGPRP | -0.158
79 | RRIRERPPRLPRPRPRPGRSPRP | -0.032
80 | RRIRTRPPRLPRPRPRPQTYPRP | -0.0726
81 | RRIRLRPPRLPRPRPRPTKMPRP | 0.0743
82 | RRIRCRPPRLPRPRPRPPFCPRP | 0.291
83 | RRIRCRPPRLPRPRPRPMGHPRP | -0.262
84 | RRIRERPPRLPRPRPRPKVEPRP | -0.0672
85 | RRIRMRPPRLPRPRPRPAVKPRP | 0.0878
86 | RRIRWRPPRLPRPRPRPVAMPRP | 0.427
87 | RRIRGRPPRLPRPRPRPAEWPRP | 0.542
88 | RRIRERPPRLPRPRPRPIYRPRP | -0.565
89 | RRIRDRPPRLPRPRPRPTFQPRP | 0.0497
90 | RRIRTRPPRLPRPRPRPEYHPRP | -0.00732
91 | RRIRHRPPRLPRPRPRPEVAPRP | -0.00165
